In patent US20240270821A1, “GIP/GLP1/GCG TRI-RECEPTOR AGONISTS AND USES THEREOF” (priority 2023, published 2024):

What was measured:
Experiment in all cases: cell-based or functional assay
[1] = molecular target: human glucagon receptor (human) (UniProt P47871)
hGLP-1R = hGLP-1R (Homo sapiens, UniProt P43220)
[2] = molecular target: T1, human GIP receptor (human) (UniProt P48546)
T1 sequence (looked up): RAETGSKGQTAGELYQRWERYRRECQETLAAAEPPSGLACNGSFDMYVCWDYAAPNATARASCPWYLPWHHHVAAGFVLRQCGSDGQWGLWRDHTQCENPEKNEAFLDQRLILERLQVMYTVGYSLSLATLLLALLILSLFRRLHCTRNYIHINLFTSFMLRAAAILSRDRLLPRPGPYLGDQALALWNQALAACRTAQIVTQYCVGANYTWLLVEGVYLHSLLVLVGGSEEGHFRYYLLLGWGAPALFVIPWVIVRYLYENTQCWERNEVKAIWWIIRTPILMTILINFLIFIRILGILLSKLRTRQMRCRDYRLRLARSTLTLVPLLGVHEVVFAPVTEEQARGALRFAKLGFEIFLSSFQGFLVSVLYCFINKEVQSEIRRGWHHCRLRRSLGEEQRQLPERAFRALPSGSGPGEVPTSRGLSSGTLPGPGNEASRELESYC

Sequence of hGLP-1R (P43220 24-463): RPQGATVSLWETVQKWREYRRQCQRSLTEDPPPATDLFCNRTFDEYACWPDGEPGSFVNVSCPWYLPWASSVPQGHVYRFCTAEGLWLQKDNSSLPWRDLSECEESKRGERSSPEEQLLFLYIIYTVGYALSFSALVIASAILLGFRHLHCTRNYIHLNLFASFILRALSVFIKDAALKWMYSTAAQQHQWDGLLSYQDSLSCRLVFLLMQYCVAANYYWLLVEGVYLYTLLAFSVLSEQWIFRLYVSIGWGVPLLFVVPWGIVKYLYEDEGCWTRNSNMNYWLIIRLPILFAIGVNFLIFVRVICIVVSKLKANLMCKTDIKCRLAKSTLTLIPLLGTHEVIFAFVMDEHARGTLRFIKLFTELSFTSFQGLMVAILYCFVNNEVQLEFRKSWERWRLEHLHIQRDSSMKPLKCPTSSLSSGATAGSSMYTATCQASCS
Sequence of human glucagon receptor (human) (P47871 26-477): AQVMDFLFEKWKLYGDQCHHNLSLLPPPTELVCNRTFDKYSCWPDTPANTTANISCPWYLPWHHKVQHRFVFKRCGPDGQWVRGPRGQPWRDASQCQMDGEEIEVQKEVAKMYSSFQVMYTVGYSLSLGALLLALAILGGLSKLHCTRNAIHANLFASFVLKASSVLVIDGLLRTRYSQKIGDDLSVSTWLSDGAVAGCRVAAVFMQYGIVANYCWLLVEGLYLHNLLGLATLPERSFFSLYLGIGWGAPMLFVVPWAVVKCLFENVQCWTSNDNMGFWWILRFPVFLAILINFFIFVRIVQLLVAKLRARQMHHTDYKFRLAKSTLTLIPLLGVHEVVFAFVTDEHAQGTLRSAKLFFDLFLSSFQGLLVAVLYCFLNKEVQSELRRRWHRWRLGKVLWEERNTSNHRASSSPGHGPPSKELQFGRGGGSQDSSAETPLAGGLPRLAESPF

B1: Example 275 (peptide)
chain: YXQGTFTSDXSXXLDKKAQXAFIEYLLEAGPSSXAPPPSGT
modifications: synthetic construct; SITE 2: note = 2-Aminoisobutyric Acid; SITE 10: note = 3-(4-Pyridyl)-L-alanine; SITE 12: note = L-ornithine; SITE 13: note = alpha-methyl-leucine; SITE 17: note = Lysine is chemically modified through conjugation of the epsilon-amino group of the Lysine side chain with (2-[2-(2-
Relative cAMP EC50 [1]: 7.8 nM
cAMP Rel EC50 (in the presence of 1% HSA) [1]: 882 nM
Relative cAMP EC50 (hGLP-1R): 4.93 nM
cAMP Rel EC50 (in the presence of 1% HSA) (hGLP-1R): 692 nM
Relative cAMP EC50 [2]: 0.318 nM
cAMP Rel EC50 (in the presence of 1% HSA) [2]: 27.7 nM

B2: Example 234 (peptide)
chain: YXQGTFTSDFSXXLDKKAQXAFIEYLLEGGXSSGAPPPGGS
modifications: Aib, Orn, αMeL, Hyp; lipidated Lys; C-terminal amide; synthetic construct; SITE 2: note = 2-Aminoisobutyric Acid; SITE 12: note = L-ornithine; SITE 13: note = alpha-methyl-leucine; SITE 17: note = Lysine is chemically modified through conjugation of the epsilon-amino group of the Lysine side chain with (2-[2-(2-Amino-ethoxy)-ethoxy]-acetyl)-(gamma-Glu)
Relative cAMP EC50 [1]: 7.87 nM
cAMP Rel EC50, nM (1% HSA) [1]: 702 nM
Relative cAMP EC50 (hGLP-1R): 4.72 nM
cAMP Rel EC50, nM (1% HSA) (hGLP-1R): 604 nM
Relative cAMP EC50 [2]: 0.322 nM
cAMP Rel EC50, nM (1% HSA) [2]: 31.1 nM

B3: Example 146 (peptide)
chain: YXQGTFTSDFSKXLDKKAQXAFIEYLLEGGESSGAPPPSGS
modifications: synthetic construct; SITE 2: note = 2-Aminoisobutyric Acid; SITE 13: note = alpha-methyl-leucine; SITE 17: note = Lysine is chemically modified through conjugation of the epsilon-amino group of the Lysine side chain with (2-[2-(2-Amino-ethoxy)-ethoxy]-acetyl)-(gamma-Glu)-CO-(CH2) 16-CO2H; SITE 20: n
cAMP Rel EC50, nM (in the presence of 1% HSA) [1]: 463 nM
cAMP Rel EC50, nM (in the presence of 1% HSA) (hGLP-1R): 678 nM
cAMP Rel EC50, nM (in the presence of 1% HSA) [2]: 74.6 nM

B4: Example 269 (peptide)
chain: YXQGTFTSDFSXXLDKKAQXAFIEWLLEGGHSSGAPPPSGH
modifications: synthetic construct; SITE 2: note = 2-Aminoisobutyric Acid; SITE 12: note = L-ornithine; SITE 13: note = alpha-methyl-leucine; SITE 17: note = Lysine is chemically modified through conjugation of the epsilon-amino group of the Lysine side chain with (2-[2-(2-Amino-ethoxy)-ethoxy]-acetyl)-(gamma-Glu)
Relative cAMP EC50 [1]: 7.69 nM
cAMP Rel EC50 (in the presence of 1% HSA) [1]: 1100 nM
Relative cAMP EC50 (hGLP-1R): 3.23 nM
cAMP Rel EC50 (in the presence of 1% HSA) (hGLP-1R): 428 nM
Relative cAMP EC50 [2]: 0.288 nM
cAMP Rel EC50 (in the presence of 1% HSA) [2]: 21.9 nM

B5: Example 272 (peptide)
chain: YXQGTFTSDFSXXLDKKAQXAFIEWLLEGGSSSGAPPPGGT
modifications: synthetic construct; SITE 2: note = 2-Aminoisobutyric Acid; SITE 12: note = L-ornithine; SITE 13: note = alpha-methyl-leucine; SITE 17: note = Lysine is chemically modified through conjugation of the epsilon-amino group of the Lysine side chain with (2-[2-(2-Amino-ethoxy)-ethoxy]-acetyl)-(gamma-Glu)
Relative cAMP EC50 [1]: 7.91 nM
cAMP Rel EC50 (in the presence of 1% HSA) [1]: 1540 nM
Relative cAMP EC50 (hGLP-1R): 2.62 nM
cAMP Rel EC50 (in the presence of 1% HSA) (hGLP-1R): 486 nM
Relative cAMP EC50 [2]: 0.254 nM
cAMP Rel EC50 (in the presence of 1% HSA) [2]: 36.3 nM

B6: Example 271 (peptide)
chain: YXQGTFTSDFSXXLDKKAQXAFIEWLLEGGHSSGAPPPGGE
modifications: synthetic construct; SITE 2: note = 2-Aminoisobutyric Acid; SITE 12: note = L-ornithine; SITE 13: note = alpha-methyl-leucine; SITE 17: note = Lysine is chemically modified through conjugation of the epsilon-amino group of the Lysine side chain with (2-[2-(2-Amino-ethoxy)-ethoxy]-acetyl)2-(gamma-Glu)
Relative cAMP EC50 [1]: 8.51 nM
cAMP Rel EC50 (in the presence of 1% HSA) [1]: 2680 nM
Relative cAMP EC50 (hGLP-1R): 5 nM
cAMP Rel EC50 (in the presence of 1% HSA) (hGLP-1R): 887 nM
Relative cAMP EC50 [2]: 0.152 nM
cAMP Rel EC50 (in the presence of 1% HSA) [2]: 15.7 nM

B7: Example 273 (peptide)
chain: YXQGTFTSDFSXXLDKKAQXAFIEWLLEGGHSSGAPPPGGE
modifications: synthetic construct; SITE 2: note = 2-Aminoisobutyric Acid; SITE 12: note = L-ornithine; SITE 13: note = alpha-methyl-leucine; SITE 17: note = Lysine is chemically modified through conjugation of the epsilon-amino group of the Lysine side chain with (2-[2-(2-Amino-ethoxy)-ethoxy]-acetyl)-(gamma-Glu)
Relative cAMP EC50 [1]: 6.96 nM
cAMP Rel EC50 (in the presence of 1% HSA) [1]: 1770 nM
Relative cAMP EC50 (hGLP-1R): 4.02 nM
cAMP Rel EC50 (in the presence of 1% HSA) (hGLP-1R): 516 nM
Relative cAMP EC50 [2]: 0.243 nM
cAMP Rel EC50 (in the presence of 1% HSA) [2]: 21.8 nM

B8: Example 257 (peptide)
chain: YXQGTFTSDFSXXLDKKAQXAFIEYLLEAGPSSGXPPPSGH
modifications: synthetic construct; SITE 2: note = 2-Aminoisobutyric Acid; SITE 12: note = L-ornithine; SITE 13: note = alpha-methyl-leucine; SITE 17: note = Lysine is chemically modified through conjugation of the epsilon-amino group of the Lysine side chain with (2-[2-(2-Amino-ethoxy)-ethoxy]-acetyl)2-(gamma-Glu)
Relative cAMP EC50 [1]: 7.36 nM
cAMP Rel EC50 (in the presence of 1% HSA) [1]: 1210 nM
Relative cAMP EC50 (hGLP-1R): 2.66 nM
cAMP Rel EC50 (in the presence of 1% HSA) (hGLP-1R): 388 nM
Relative cAMP EC50 [2]: 0.135 nM
cAMP Rel EC50 (in the presence of 1% HSA) [2]: 21 nM

B9: Example 245 (peptide)
chain: YXQGTFTSDFSXXLDKKAQXAFIEYLLEXGHSSGAPPPSGS
modifications: Aib, Orn, αMeL; lipidated Lys; C-terminal amide; synthetic construct; SITE 2: note = 2-Aminoisobutyric Acid; SITE 12: note = L-ornithine; SITE 13: note = alpha-methyl-leucine; SITE 17: note = Lysine is chemically modified through conjugation of the epsilon-amino group of the Lysine side chain with (gamma-Glu)-(2-[2-(2-Amino-ethoxy)-ethoxy]-acetyl)
Relative cAMP EC50 [1]: 7.07 nM
cAMP Rel EC50, nM (1% HSA) [1]: 1120 nM
Relative cAMP EC50 (hGLP-1R): 5.99 nM
cAMP Rel EC50, nM (1% HSA) (hGLP-1R): 540 nM
Relative cAMP EC50 [2]: 0.0684 nM
cAMP Rel EC50, nM (1% HSA) [2]: 10.5 nM

B10: Example 268 (peptide)
chain: YXQGTFTSDFSXXLDKKAQXAFIEWLLEGGXSSGAPPPSGT
modifications: synthetic construct; SITE 2: note = 2-Aminoisobutyric Acid; SITE 12: note = L-ornithine; SITE 13: note = alpha-methyl-leucine; SITE 17: note = Lysine is chemically modified through conjugation of the epsilon-amino group of the Lysine side chain with (2-[2-(2-Amino-ethoxy)-ethoxy]-acetyl)-(gamma-Glu)
Relative cAMP EC50 [1]: 7.69 nM
cAMP Rel EC50 (in the presence of 1% HSA) [1]: 1300 nM
Relative cAMP EC50 (hGLP-1R): 3.14 nM
cAMP Rel EC50 (in the presence of 1% HSA) (hGLP-1R): 437 nM
Relative cAMP EC50 [2]: 0.274 nM
cAMP Rel EC50 (in the presence of 1% HSA) [2]: 33.7 nM

B11: Example 260 (peptide)
chain: YXQGTFTSDFSXXLDKKAQXAFIEYLLEGGPSSGAPPPSGT
modifications: synthetic construct; SITE 2: note = 2-Aminoisobutyric Acid; SITE 12: note = L-ornithine; SITE 13: note = alpha-methyl-leucine; SITE 17: note = Lysine is chemically modified through conjugation of the epsilon-amino group of the Lysine side chain with (gamma-Glu)2-CO-(CH2)16-CO2H; SITE 20: note = 2-Am
Relative cAMP EC50 [1]: 5.04 nM
cAMP Rel EC50 (in the presence of 1% HSA) [1]: 162 nM
Relative cAMP EC50 (hGLP-1R): 3.85 nM
cAMP Rel EC50 (in the presence of 1% HSA) (hGLP-1R): 160 nM
Relative cAMP EC50 [2]: 0.251 nM
cAMP Rel EC50 (in the presence of 1% HSA) [2]: 12.4 nM

B12: Example 274 (peptide)
chain: YXQGTFTSDXSXXLDKKAQXAFIEYLLEAGPSSGAPPPSGX
modifications: synthetic construct; SITE 2: note = 2-Aminoisobutyric Acid; SITE 10: note = 3-(4-Pyridyl)-L-alanine; SITE 12: note = L-ornithine; SITE 13: note = alpha-methyl-leucine; SITE 17: note = Lysine is chemically modified through conjugation of the epsilon-amino group of the Lysine side chain with (2-[2-(2-
Relative cAMP EC50 [1]: 9.37 nM
cAMP Rel EC50 (in the presence of 1% HSA) [1]: 1120 nM
Relative cAMP EC50 (hGLP-1R): 4.9 nM
cAMP Rel EC50 (in the presence of 1% HSA) (hGLP-1R): 560 nM
Relative cAMP EC50 [2]: 0.296 nM
cAMP Rel EC50 (in the presence of 1% HSA) [2]: 27.6 nM

B13: Example 277 (peptide)
chain: YXQGTFTSDFSXXLDKKAQXAFIEYLLEXGPSSGAPPPSGX
modifications: synthetic construct; SITE 2: note = 2-Aminoisobutyric Acid; SITE 12: note = L-ornithine; SITE 13: note = alpha-methyl-leucine; SITE 17: note = Lysine is chemically modified through conjugation of the epsilon-amino group of the Lysine side chain with (gamma-Glu)-(2-[2-(2-Amino-ethoxy)-ethoxy]-acetyl)
Relative cAMP EC50 [1]: 10.6 nM
cAMP Rel EC50 (in the presence of 1% HSA) [1]: 1690 nM
Relative cAMP EC50 (hGLP-1R): 5.56 nM
cAMP Rel EC50 (in the presence of 1% HSA) (hGLP-1R): 639 nM
Relative cAMP EC50 [2]: 0.0672 nM
cAMP Rel EC50 (in the presence of 1% HSA) [2]: 13.3 nM
